From PMC6520365, “Structural and functional characterization of the PDZ domain of the human phosphatase PTPN3 and its interaction with the human papillomavirus E6 oncoprotein” (Scientific Reports, 2019) come the findings set out here.

Common to all, as to conditions: both partners purified
Assay [1] deals with T1, PDZ domain of the human protein tyrosine phosphatase non-receptor type 3 (PTPN3-PDZ) (human, UniProt P26045-1 504-913, Start 504 is printed. End 597 comes from the 6HKS entity and fits the printed 94 residues (89 non-Pro). GST removed by TEV; any residual tag residues left out.). Description: AUC; sedimentation velocity, PTPN3-PDZ at 70 μM with HBVc PBM peptide, 20 °C, 42000 rpm.

For assay [2], the target named is PTPN3-PDZ_(Next), PDZ domain of human PTPN3 extended at the N-terminus by 15 residues of its wild-type … (human, UniProt P26045-1 489-913, Start 489 is 504 minus the 15 residues printed. End 597 comes from the 6HKS entity (residues 6-114); its GAMGS tag remnant is left out.). Description: AUC; sedimentation velocity, PTPN3-PDZ_(Next) at 70 μM with PBM peptide, 20 °C, 42000 rpm.
PTPN3-PDZ_(Next), PDZ domain of human PTPN3 extended at the N-terminus by 15 residues of its wild-type …, sequence (P26045 489-913): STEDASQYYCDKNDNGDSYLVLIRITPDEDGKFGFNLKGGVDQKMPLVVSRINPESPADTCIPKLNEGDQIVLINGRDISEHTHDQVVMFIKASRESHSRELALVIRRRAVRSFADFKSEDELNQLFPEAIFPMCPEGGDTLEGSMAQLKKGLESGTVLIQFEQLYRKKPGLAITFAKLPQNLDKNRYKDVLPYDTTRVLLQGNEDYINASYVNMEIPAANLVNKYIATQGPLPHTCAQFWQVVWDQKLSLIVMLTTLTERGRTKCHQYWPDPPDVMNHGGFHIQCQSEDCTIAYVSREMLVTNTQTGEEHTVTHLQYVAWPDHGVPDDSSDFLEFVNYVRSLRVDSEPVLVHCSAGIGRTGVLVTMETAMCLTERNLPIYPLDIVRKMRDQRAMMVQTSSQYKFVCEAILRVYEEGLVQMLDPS

Assay [3] deals with T1, PDZ domain of the human protein …. The experiment in a line: NMR titration; unlabeled peptide added stepwise to 15N-labeled PTPN3-PDZ at 95 or 149 μM; 1H,15N HSQC chemical shift perturbations; 15 °C; 50 mM Tris/HCl pH 7.5, 150 mM NaCl, 0.5 mM TCEP; KD from 8 to 14 fitted curves.
Assay [4] deals with HPV18E6 PBM peptide (C-terminal sequence of the human papillomavirus type 18 E6 protein) (human papillomavirus type 18). Described as above.

B1: HBVc PBM peptide (C-terminal sequence of the hepatitis B virus core protein) (peptide)
peptide: RRRRSQSRESQC
notes: also called HBV Core PBM; source: synthetic peptide (Fmoc solid phase, Proteogenix)
With B1, the “stoichiometry N” value in assay [1] and in assay [2] was 1 each time. The Kd in assay [3] is 29 µM.

B2: PDZ domain of the human protein tyrosine phosphatase non-receptor type 3 (PTPN3-PDZ) (domain or fragment)
chain: GDSYLVLIRITPDEDGKFGFNLKGGVDQKMPLVVSRINPESPADTCIPKLNEGDQIVLINGRDISEHTHDQVVMFIKASRESHSRELALVIRRR
For B2, the Kd in assay [4] came out at 37 µM.

B3: HPV16E6 PBM peptide (C-terminal sequence of the human papillomavirus type 16 E6 protein) (peptide)
peptide: RSSRTRRETQL
notes: Only the last seven residues (TRRETQL) are seen in the crystal; also called PBM of HPV16 E6; source: synthetic peptide (Fmoc solid phase, Proteogenix)
As to B3, the “stoichiometry N” value in assay [2] was 1. Also, in assay [3], the Kd was found to be 53 µM.

B4: p38γ PBM peptide (C-terminal sequence of the MAP kinase p38γ) (peptide)
peptide: SWARVSKETPL
notes: also called MAPK12 PBM; source: synthetic peptide (Fmoc solid phase, Proteogenix)
Take B4: the Kd in assay [3] stood at 26 µM.
